The chains are these.
T1: Abp1 SH3 (ABP1_YEAST), P15891
T1 chain: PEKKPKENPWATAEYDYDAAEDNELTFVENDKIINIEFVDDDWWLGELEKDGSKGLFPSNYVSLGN

B1: YKL220C 443-456 (peptide)
chain: DDLIRLTVKKPARP
B2: YDR135C 180-193 (peptide)
chain: SASILLLEALPKKP
B3: YBR257W 10-23 (peptide)
chain: DSLFTKSLEDPEKP
B4: YGL170C 266-278 (peptide)
chain: DFRNPLLPIDNRP
B5: YLR374C 54-66 (peptide)
chain: SHTKNTHPDFSKP
B6: YCR077C 93-105 (peptide)
chain: DGTAAAGPLDLKP
B7: YLR410W 340-352 (peptide)
chain: DGKTMTKPFVEKP
B8: YJR033C 1330-1343 (peptide)
chain: DILDDLSSQKPQKP
B9: YGR134W 1092-1104 (peptide)
chain: DGKILPLPKADKP
B10: YDR096W 741-753 (peptide)
chain: DAGPSFSPLHKKP
B11: YOR175C 203-215 (peptide)
chain: SEMFRDLPESKKP
B12: YMR153W 198-210 (peptide)
chain: DGKPTATPSPFRP
B13: YER047C 185-198 (peptide)
chain: DAENIRVNFVPSKP
B14: YOL055C 307-320 (peptide)
chain: DESFTASDVIPKKP
B15: YLR299W 80-93 (peptide)
chain: DHHNIDIDPLPRRP
B16: YPL100W 257-269 (peptide)
chain: SFTAYSSPKKNKP
B17: YPR121W 328-341 (peptide)
chain: DESFTASDAVPKKP
B18: YER027C 294-307 (peptide)
chain: DGYTRFHDETPAKP
B19: YKL020C 937-950 (peptide)
chain: DELPKYEDLFPKKP
B20: YDL156W 333-346 (peptide)
chain: DKKIGSMAINPMRP
B21: YBL015W 191-203 (peptide)
chain: DIDMPVNPPFRKP
B22: YLR417W 380-392 (peptide)
chain: DESTVNEPKTRRP
B23: YGL044C 219-231 (peptide)
chain: SKVDDLIPLASRP
B24: YKL196C 76-89 (peptide)
chain: SGVLITDKEYPVRP
B25: YOL125W 257-270 (peptide)
chain: DDFSEIKSNSPSKP
B26: YKL092C 848-860 (peptide)
chain: DKKDLDSPIEVKP
B27: YBL005W-B 1588-1601 (peptide)
chain: DKQLIWHKSKPVKP
B28: YPR186C 218-230 (peptide)
chain: DHPKLKSPISSKP
B29: YDR464W 561-574 (peptide)
chain: DASSVELTEVPSKP
B30: YDR407C 928-940 (peptide)
chain: SVRIIKLPTVIKP
B31: YMR244W 79-91 (peptide)
chain: SSYGSWSPYASKP
B32: YIL109C 377-389 (peptide)
chain: DIADLEEPFLPRP
B33: YLR106C 2240-2252 (peptide)
chain: SSQEDGQPRVLKP
B34: YGR013W 516-529 (peptide)
chain: DEGYRESELPPTKP
B35: YLR077W 535-547 (peptide)
chain: SAKPMNIPEVLKP
B36: YMR003W 182-194 (peptide)
chain: SLWWNLEPQESKP
B37: YOL084W 269-281 (peptide)
chain: DDLETYVPHKKRP
B38: YGR271W 1320-1332 (peptide)
chain: DHGLYNFPSSVRP
B39: YER095W 332-344 (peptide)
chain: DGGMAFNPDPKKP
B40: YOR068C 68-80 (peptide)
chain: SSSSSGLPATDKP
B41: YPR070W 510-523 (peptide)
chain: DIEMKDVSSKPSKP
B42: YOR056C 307-319 (peptide)
chain: SFKIFPLPKDGKP
B43: YLR450W 583-596 (peptide)
chain: SVYALSSQDEPIRP
B44: YIL029C 115-127 (peptide)
chain: SSQGINVPGTKKP
B45: YDL215C 852-864 (peptide)
chain: DHVDIFVPSGGRP
B46: YPR068C 139-151 (peptide)
chain: SINNSEVPTNDKP
B47: YMR147W 118-131 (peptide)
chain: DENEKESRHYPIKP
B48: YER090W 132-144 (peptide)
chain: DSVRYFEPKTRRP
B49: YKL103C 202-214 (peptide)
chain: SRIPSLAPHFGKP
B50: YBL101W-B 1603-1616 (peptide)
chain: DKQLIWHKNKPTKP
B51: YPL150W 616-628 (peptide)
chain: DGKVSPPPIRNRP
B52: YPL100W 471-484 (peptide)
chain: DDGTFSIYSIPSKP
B53: YOR066W 218-231 (peptide)
chain: SDTDTLPEAPPAKP
B54: YGL197W 684-696 (peptide)
chain: DEEDDEDPVSPKP

In this experiment the target is T1, Abp1 SH3 (ABP1_YEAST), P15891. Kind of experiment: SPOT array.
For the molecule B1, the normalised SPOT signal, Boehringer light units (BLU); mean over the file's lines of this peptide is 446.

For the molecule B2, the normalised SPOT signal, Boehringer light units (BLU); mean over the file's lines of this peptide was 112.

B3 came in with a normalised SPOT signal, Boehringer light units (BLU); mean over the file's lines of this peptide of 113.

Turning to B4, the normalised SPOT signal, Boehringer light units (BLU); mean over the file's lines of this peptide came out at 138.

For B5, the normalised SPOT signal, Boehringer light units (BLU); mean over the file's lines of this peptide is 39.3.

With B6, the normalised SPOT signal, Boehringer light units (BLU); mean over the file's lines of this peptide was determined as 47.1.

B7 returned a normalised SPOT signal, Boehringer light units (BLU); mean over the file's lines of this peptide of 171.

Molecule B8 gave a normalised SPOT signal, Boehringer light units (BLU); mean over the file's lines of this peptide of 131.

For B9, the normalised SPOT signal, Boehringer light units (BLU); mean over the file's lines of this peptide turned out to be 18.9.

B10 yielded a normalised SPOT signal, Boehringer light units (BLU); mean over the file's lines of this peptide of 231.

B11 gave a normalised SPOT signal, Boehringer light units (BLU); mean over the file's lines of this peptide of 86.3.

B12: the normalised SPOT signal, Boehringer light units (BLU); mean over the file's lines of this peptide was determined as 158.

Molecule B13 showed a normalised SPOT signal, Boehringer light units (BLU); mean over the file's lines of this peptide of 133.

Take B14: the normalised SPOT signal, Boehringer light units (BLU); mean over the file's lines of this peptide worked out at 142.

The molecule B15 displayed a normalised SPOT signal, Boehringer light units (BLU); mean over the file's lines of this peptide of 122.

Take B16: the normalised SPOT signal, Boehringer light units (BLU); mean over the file's lines of this peptide came out at 324.

As for B17, the normalised SPOT signal, Boehringer light units (BLU); mean over the file's lines of this peptide was determined as 112.

As to B18, the normalised SPOT signal, Boehringer light units (BLU); mean over the file's lines of this peptide amounted to 101.

As for B19, the normalised SPOT signal, Boehringer light units (BLU); mean over the file's lines of this peptide came out at 132.

B20: the normalised SPOT signal, Boehringer light units (BLU); mean over the file's lines of this peptide was found to be 183.

For the molecule B21, the normalised SPOT signal, Boehringer light units (BLU); mean over the file's lines of this peptide is 257.

Take B22: the normalised SPOT signal, Boehringer light units (BLU); mean over the file's lines of this peptide stood at 95.6.

B23 came in with a normalised SPOT signal, Boehringer light units (BLU); mean over the file's lines of this peptide of 111.

B24 showed a normalised SPOT signal, Boehringer light units (BLU); mean over the file's lines of this peptide of 56.

On to B25, for which the normalised SPOT signal, Boehringer light units (BLU); mean over the file's lines of this peptide stood at 58.4.

With B26, the normalised SPOT signal, Boehringer light units (BLU); mean over the file's lines of this peptide is 36.5.

B27 had a normalised SPOT signal, Boehringer light units (BLU); mean over the file's lines of this peptide of 2860.

The molecule B28 returned a normalised SPOT signal, Boehringer light units (BLU); mean over the file's lines of this peptide of 98.

As to B29, the normalised SPOT signal, Boehringer light units (BLU); mean over the file's lines of this peptide is 25.2.

As to B30, the normalised SPOT signal, Boehringer light units (BLU); mean over the file's lines of this peptide turned out to be 175.

In turn, B31 yielded a normalised SPOT signal, Boehringer light units (BLU); mean over the file's lines of this peptide of 46.2.

B32: the normalised SPOT signal, Boehringer light units (BLU); mean over the file's lines of this peptide came out at 65.6.

Regarding B33, the normalised SPOT signal, Boehringer light units (BLU); mean over the file's lines of this peptide was determined as 118.

B34 showed a normalised SPOT signal, Boehringer light units (BLU); mean over the file's lines of this peptide of 62.8.

Take B35: the normalised SPOT signal, Boehringer light units (BLU); mean over the file's lines of this peptide turned out to be 144.

Molecule B36 came in with a normalised SPOT signal, Boehringer light units (BLU); mean over the file's lines of this peptide of 68.

B37 had a normalised SPOT signal, Boehringer light units (BLU); mean over the file's lines of this peptide of 120.

As to B38, the normalised SPOT signal, Boehringer light units (BLU); mean over the file's lines of this peptide came to 77.3.

Molecule B39 yielded a normalised SPOT signal, Boehringer light units (BLU); mean over the file's lines of this peptide of 105.

As to B40, the normalised SPOT signal, Boehringer light units (BLU); mean over the file's lines of this peptide is 59.6.

With B41, the normalised SPOT signal, Boehringer light units (BLU); mean over the file's lines of this peptide was 85.7.

The molecule B42 yielded a normalised SPOT signal, Boehringer light units (BLU); mean over the file's lines of this peptide of 102.

In the case of B43, the normalised SPOT signal, Boehringer light units (BLU); mean over the file's lines of this peptide is 37.7.

With B44, the normalised SPOT signal, Boehringer light units (BLU); mean over the file's lines of this peptide is 178.

Molecule B45 yielded a normalised SPOT signal, Boehringer light units (BLU); mean over the file's lines of this peptide of 33.3.

Turning to B46, the normalised SPOT signal, Boehringer light units (BLU); mean over the file's lines of this peptide is 72.1.

Consider B47, for which the normalised SPOT signal, Boehringer light units (BLU); mean over the file's lines of this peptide was 104.

B48: the normalised SPOT signal, Boehringer light units (BLU); mean over the file's lines of this peptide came out at 659.

For the molecule B49, the normalised SPOT signal, Boehringer light units (BLU); mean over the file's lines of this peptide turned out to be 99.3.

B50 displayed a normalised SPOT signal, Boehringer light units (BLU); mean over the file's lines of this peptide of 1730.

In turn, B51 showed a normalised SPOT signal, Boehringer light units (BLU); mean over the file's lines of this peptide of 6430.

With B52, the normalised SPOT signal, Boehringer light units (BLU); mean over the file's lines of this peptide came out at 169.

In turn, B53 came in with a normalised SPOT signal, Boehringer light units (BLU); mean over the file's lines of this peptide of 108.

The molecule B54 displayed a normalised SPOT signal, Boehringer light units (BLU); mean over the file's lines of this peptide of 90.3.

The record behind these values is paper PMC314469, “Protein Interaction Networks by Proteome Peptide Scanning” (PLoS Biology, 2004).
